Test: Solute release from bonded HPC gel membranes (modified HPLC system)
Assay type: physicochemical
Experimental: Solute release tests were conducted in the same manner as for PNIPA gels, as described in Example 1. The solute release experiments were designed to model the actual conditions of catheter use, which entail therapeutic solute loading at room temperature (25° C.), insertion of the catheter into the patient at 37° C., and temperature induced enhanced solute release when the catheter is placed at a target location in the body. While the experimental design was generally successful in modeling the actual use of catheter, heat lost to the experimental apparatus tubing reduced the 37° C. test temperature to 33° C. Because the transition temperature of HPC is fairly sharp (in this case, 43° C.), the reduction of test temperature from 37° C. to 33° C. had little impact on the test results.
Solute release experiments were conducted under four constant temperature conditions and three step change conditions. […] Thus, test temperatures below and above the transition temperature of HPC (43° C.) were used. […]

B1: ovalbumin: ovalbumin (M.w. 45,000 Da), model protein for bioactive proteins such as urokinase (protein, UniProt P01012 2-386, looked up)
Ovalbumin: GSIGAASMEFCFDVFKELKVHHANENIFYCPIAIMSALAMVYLGAKDSTRTQINKVVRFDKLPGFGDSIEAQCGTSVNVHSSLRDILNQITKPNDVYSFSLASRLYAEERYPILPEYLQCVKELYRGGLEPINFQTAADQARELINSWVESQTNGIIRNVLQPSSVDSQTAMVLVNAIVFKGLWEKAFKDEDTQAMPFRVTEQESKPVQMMYQIGLFRVASMASEKMKILELPFASGTMSMLVLLPDEVSGLEQLESIINFEKLTEWTSSNVMEERKIKVYLPRMKMEEKYNLTSVLMAMGITDVFSSSANLSGISSAESLKISQAVHAAHAEINEAGREVVGSAEAGVDAASVSEEFRADHPFLFCIKHIATNAVLFFGRCVSP
solute released before the temperature change (HPC gel membrane 0.66 mm, first two minutes at 24° C.): 11% | solute released within the first 7 minutes of the test (HPC gel membrane 0.66 mm, isothermal 24° C.): about 30% | solute released in the five minutes immediately after the temperature change (HPC gel membrane 0.66 mm, step 24° C. to 46° C.): 54% | solute released within the first 7 minutes of the test (HPC gel membrane 0.66 mm, step 24° C. to 46° C. after about two minutes): about 65% | ratio of the area of the convective pulse to the area of the isothermal release curve (triggered release from HPC gel): much greater for ovalbumin than for methyl orange or estradiol

From patent US7407671B2, “Temperature controlled solute delivery system” (Boston Scientific Scimed, Inc., priority 1998, dated 2008)
